The text below walks through data of patent US11214614B2, “LTBP complex-specific inhibitors of TGFβ and uses thereof” (Scholar Rock, Inc., priority 2019, dated 2022).

Data set [1] deals with TGFβ downstream tonic signaling. In words: TGFβ downstream tonic signaling in non-diseased rat BAL. The data set is classed as in vivo. An excerpt:
Indeed, data presented herein support this notion. […] Preferably, TGFβ antagonists for use in the treatment of such conditions exert their inhibitory activities only towards the disease-induced or disease-associated isoform, while preserving the function of the other isoforms that are normally expressed to mediate tonic signaling in the tissue. […] Alternatively or additionally, agents that target and block integrin-dependent activation of TGFβ may be capable of blocking only a subset of integrins responsible for disease-associated TGFβ1 activation, among numerous integrin types that are expressed by various cell types and play a role in the pathogenesis. Furthermore, even where such antagonists may selectively block integrin-mediated activation of the TGFβ1 isoform, it may be ineffective in blocking TGFβ1 activation triggered by other modes, such as protease-dependent activation. Accordingly, the isoform-specific inhibitors of TGFβ1 such as those described herein are aimed to prevent the activation step of TGFβ1 regardless of the particular mode of activation, while maintaining isoform selectivity.

For data set [2] the following is noted: literature reports (Frazier et al. 2007; Stauber et al. 2014, chronic ≥3 months); cited from earlier work.
The conditions of data set [3]: Stauber et al. 2014, chronic (≥3 months) administration; cited from earlier work.
The conditions of data set [4]: in vivo; cited from earlier work.
Data set [5] has as its system male C57BL/6J mice on CDHFD (liver fibrosis). As to the kind of experiment: Choline-deficient high fat diet (CDHFD) model of mouse NASH, liver hydroxyproline content. The data set is classed as in vivo. The note with it: 15 mg/kg twice a week i.p., weeks 4 through 12 of CDHFD. The source says: The Choline deficient high fat diet (CDHFD) is an established diet-induced model of Non-Alcoholic steatohepatitis (NASH). In this model, male C57BL/6J mice are fed a choline deficient, 0.10% Methionine, high fat diet for 12 weeks. Three to six weeks after the start of the CDHFD, activation of pro-fibrotic processes can be detected through increased expression of α-smooth muscle actin (α-SMA) protein, a marker for activation of hepatic stellate cells, and elevated tissue hydroxyproline content reflecting increased collagen synthesis and deposition (Matsumoto et. al, Int J Exp Pathol. 2013 April; 94(2):93-103).
LTBP complex-specific antibodies were tested for their ability to inhibit and/or reduce the extent of liver fibrosis in mice in the CDHFD model as follows. An outline of the study is shown below in Table 21.
Animals in the test cohorts were on the CDHFD for the duration of the study. A separate cohort of mice (Group 1) were administered a regular chow diet as a study control. Antibodies SR-AB42 and SR-AB31 were administered to mice by intraperitoneal (i.p.) injection beginning at 4 weeks post start of the CDHFD. Animals were dosed at antibody test concentrations 15 mg/kg twice a week (i.e., 30 mg/kg/week) for a test duration of 8 weeks (i.e., weeks 4 through 12). […] Endpoint readout was hydroxyproline content. […]

Another data set addresses huLTBP3 proTGFβ1 (Homo sapiens, UniProt P01137+Q9NS15). In words: Octet (BLI) binding, IgG captured on AHC tips, antigen at 100 nM. The note with it: Table 9, cycle 3, IgG1-agly. The essentials: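 Antibodies loaded at 1 μg/mL onto anti-human Fc sensors were exposed to each TGFβ1 complex at 100 nM in kinetics buffer. Association ran 3 min; dissociation was 3 min in one protocol and 5 min in another. KD came from a 1:1 fitting model.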
Background: In BLI a coated tip is dipped into the sample, and binding shifts an interference pattern.

The target of another data set is huLTBP1 proTGFβ1 (Homo sapiens, UniProt P01137+Q14766). The data set is described as above. The note with it: Table 9, cycle 3, IgG1-agly. The essentials: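 Antibodies were captured on anti-human Fc biosensors at 1 μg/mL (~7 nM), to a maximum response of 1 nm. Antigen complex was run at a single 100 nM in 1× kinetics buffer, shaking at 1000 rpm. Association was 3 min and dissociation 3 min (5 min in later rounds), with KD from a local, full 1:1 fit.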
Chain of huLTBP1 proTGFβ1 (P01137 30-390): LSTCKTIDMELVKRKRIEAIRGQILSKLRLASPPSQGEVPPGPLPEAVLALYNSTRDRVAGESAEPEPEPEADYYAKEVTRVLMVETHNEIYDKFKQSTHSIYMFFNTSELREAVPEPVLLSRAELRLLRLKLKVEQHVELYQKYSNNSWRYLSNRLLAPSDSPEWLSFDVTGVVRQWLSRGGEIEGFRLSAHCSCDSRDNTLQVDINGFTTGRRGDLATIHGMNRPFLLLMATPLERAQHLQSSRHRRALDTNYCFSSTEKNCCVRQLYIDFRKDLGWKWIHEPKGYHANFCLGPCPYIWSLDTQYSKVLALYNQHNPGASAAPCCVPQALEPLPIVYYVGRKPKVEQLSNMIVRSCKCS
Chain of huLTBP1 proTGFβ1 (Q14766 347-1721 limits assumed): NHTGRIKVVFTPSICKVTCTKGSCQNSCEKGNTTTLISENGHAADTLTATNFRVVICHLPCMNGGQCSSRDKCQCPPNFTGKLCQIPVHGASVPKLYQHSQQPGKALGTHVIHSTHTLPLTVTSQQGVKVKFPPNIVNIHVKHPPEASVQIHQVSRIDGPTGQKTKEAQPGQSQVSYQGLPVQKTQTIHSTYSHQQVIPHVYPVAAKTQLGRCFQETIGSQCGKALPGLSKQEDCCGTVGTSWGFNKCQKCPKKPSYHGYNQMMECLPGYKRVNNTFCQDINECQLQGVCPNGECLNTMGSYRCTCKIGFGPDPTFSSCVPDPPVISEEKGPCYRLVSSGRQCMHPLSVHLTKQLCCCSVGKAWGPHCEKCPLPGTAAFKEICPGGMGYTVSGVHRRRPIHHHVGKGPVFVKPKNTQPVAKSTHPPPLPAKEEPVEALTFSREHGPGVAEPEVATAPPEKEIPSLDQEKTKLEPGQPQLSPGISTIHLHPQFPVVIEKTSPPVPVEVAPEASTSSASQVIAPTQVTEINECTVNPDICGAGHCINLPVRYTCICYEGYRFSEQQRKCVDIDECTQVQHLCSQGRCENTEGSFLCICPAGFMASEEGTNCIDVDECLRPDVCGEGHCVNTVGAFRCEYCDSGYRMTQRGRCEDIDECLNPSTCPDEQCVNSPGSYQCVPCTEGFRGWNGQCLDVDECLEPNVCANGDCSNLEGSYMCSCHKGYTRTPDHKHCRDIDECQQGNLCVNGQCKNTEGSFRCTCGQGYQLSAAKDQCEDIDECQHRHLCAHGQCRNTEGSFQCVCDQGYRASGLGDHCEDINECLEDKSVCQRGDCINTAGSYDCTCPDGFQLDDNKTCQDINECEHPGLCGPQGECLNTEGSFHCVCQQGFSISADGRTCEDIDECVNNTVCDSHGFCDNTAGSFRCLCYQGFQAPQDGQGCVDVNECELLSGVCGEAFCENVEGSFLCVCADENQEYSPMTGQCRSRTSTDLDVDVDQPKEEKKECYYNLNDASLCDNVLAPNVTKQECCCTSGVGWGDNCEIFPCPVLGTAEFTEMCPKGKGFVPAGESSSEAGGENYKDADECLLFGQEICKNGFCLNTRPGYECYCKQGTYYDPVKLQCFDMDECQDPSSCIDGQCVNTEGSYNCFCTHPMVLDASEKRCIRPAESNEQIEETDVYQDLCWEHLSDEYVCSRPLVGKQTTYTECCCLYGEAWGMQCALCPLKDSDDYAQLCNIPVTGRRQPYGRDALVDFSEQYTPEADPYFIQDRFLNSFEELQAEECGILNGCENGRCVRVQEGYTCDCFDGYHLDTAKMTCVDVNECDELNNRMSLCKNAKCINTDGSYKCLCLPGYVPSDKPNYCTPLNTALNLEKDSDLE

Chain of huLTBP3 proTGFβ1 (P01137 30-390): as the sequence (P01137 30-390) above
Chain of huLTBP3 proTGFβ1 (Q9NS15 44-1303): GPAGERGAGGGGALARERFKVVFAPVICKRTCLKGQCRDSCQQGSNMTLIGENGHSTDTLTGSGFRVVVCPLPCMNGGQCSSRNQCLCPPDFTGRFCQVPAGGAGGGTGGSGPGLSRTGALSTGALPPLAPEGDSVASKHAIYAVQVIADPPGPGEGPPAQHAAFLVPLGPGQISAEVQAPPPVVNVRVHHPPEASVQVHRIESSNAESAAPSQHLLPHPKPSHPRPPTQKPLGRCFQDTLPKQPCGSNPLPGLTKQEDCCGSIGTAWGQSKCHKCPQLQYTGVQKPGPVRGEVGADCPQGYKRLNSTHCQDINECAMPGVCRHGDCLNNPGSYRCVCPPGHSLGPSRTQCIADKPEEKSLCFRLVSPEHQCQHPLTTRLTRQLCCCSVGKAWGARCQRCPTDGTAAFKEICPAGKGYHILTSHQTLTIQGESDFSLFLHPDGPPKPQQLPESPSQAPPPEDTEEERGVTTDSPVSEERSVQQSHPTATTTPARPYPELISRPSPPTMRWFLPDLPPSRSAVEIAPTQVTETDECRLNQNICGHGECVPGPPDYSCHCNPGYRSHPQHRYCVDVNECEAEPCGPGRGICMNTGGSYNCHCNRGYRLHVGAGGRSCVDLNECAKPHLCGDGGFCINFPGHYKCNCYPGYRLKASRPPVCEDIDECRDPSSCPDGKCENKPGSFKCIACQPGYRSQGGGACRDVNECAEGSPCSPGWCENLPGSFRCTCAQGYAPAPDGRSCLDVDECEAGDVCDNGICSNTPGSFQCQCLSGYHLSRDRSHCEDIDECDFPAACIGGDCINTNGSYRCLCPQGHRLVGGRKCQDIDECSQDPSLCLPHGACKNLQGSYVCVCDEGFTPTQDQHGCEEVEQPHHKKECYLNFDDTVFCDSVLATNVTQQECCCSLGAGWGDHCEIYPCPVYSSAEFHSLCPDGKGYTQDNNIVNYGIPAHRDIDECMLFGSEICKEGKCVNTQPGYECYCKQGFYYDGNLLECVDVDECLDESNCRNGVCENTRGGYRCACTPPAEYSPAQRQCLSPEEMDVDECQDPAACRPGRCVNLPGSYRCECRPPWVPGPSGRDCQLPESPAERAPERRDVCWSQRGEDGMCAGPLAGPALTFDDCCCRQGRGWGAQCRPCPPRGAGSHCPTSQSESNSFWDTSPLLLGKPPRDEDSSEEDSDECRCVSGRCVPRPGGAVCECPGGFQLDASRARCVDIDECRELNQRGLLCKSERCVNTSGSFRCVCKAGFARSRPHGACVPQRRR

Take `c1ccc(-c2nn3c(c2-c2ccnc4cc(OCCN5CCOCC5)ccc24)CCC3)nc1` [LY2109761]: the “TGFβ downstream tonic signaling” value in data set [1] is “inhibit TGFβ downstream tonic signaling in non-diseased rat BAL”.

In the case of `Cc1cccc(-c2nn3c(c2-c2ccnc4ccc(C(N)=O)cc24)CCC3)n1` [LY2157299], in data set [2], the Toxicity in rats result is “caused multiple organ toxicities involving the cardiovascular, gastrointestinal, immune, bone/cartilage, reproductive, and renal systems”. Also, the Toxicity in dogs result in data set [3] was “caused multiple organ toxicities involving the cardiovascular, gastrointestinal, immune, bone/cartilage, reproductive, and renal systems”.

Consider “GC1008: a “pan” TGFβ antibody capable of neutralizing all human isoforms of TGFβ”, for which, in data set [4], the “Exposure, DN Cmax, Human” value is listed as “DN Cmax ~(350 ng/mL) (ng/mL) mg” and the “Exposure, Half-life, Human” value was “Half-life: 21.7 d”.

B1: SR-AB31: cycle 3 light chain-optimized antibody, lineage SR-AB22; CDRs SEQ ID NO: 124-129 (antibody, V domains shown)
VH: QVQLVESGGGVVQPGRSLRLSCAASGFTFRSYVMHWVRQAPGKGLEWVAVISHEGSLKYYADSVKGRFTISRDNSKNTLYLQMNSLRAEDTAVYYCAVPRIAARRGGFGYWGQGTLVTVSS
VL: NFMLTQPHSVSESPGKTVTISCTRSSGNIDNNYVQWYQQRPGSSPTTVIYEDNQRPSGVPDRFSGSIDSSSNSASLTISGLKTEDEADYYCQSYDFNNQGVVFGGGTKLTVL
In the case of B1, the “Hydroxyproline (HYP) in liver tissue” value in data set [5] was “inhibited the increase in HYP”. In the data set with huLTBP3 proTGFβ1 (1:1 fit), the “Hu LTBP3-proTGFβ1 Kon” value was 308000 M⁻¹ s⁻¹. Further, in the data set with huLTBP3 proTGFβ1 (5-minute dissociation), the “Hu LTBP3-proTGFβ1 Koff” value worked out at 6.81e-05 s⁻¹. Moreover, in the data set with huLTBP1 proTGFβ1 (1:1 fit), the “Hu LTBP1-proTGFβ1 Kon” value amounted to 240000 M⁻¹ s⁻¹. Besides, in the data set with huLTBP1 proTGFβ1 (5-minute dissociation), the “Hu LTBP1-proTGFβ1 Koff” value was 9.89e-05 s⁻¹.
